In patent US20140274782A1, “AFFINITY REAGENTS AND METHODS FOR DETECTION, PURIFICATION, AND PROTEOMIC ANALYSIS OF METHYLATED PROTEINS” (The Board of Trustees of the Leland Stanford Junior …, priority 2013, published 2014):

B1: DNAJC2 (protein, UniProt Q99543 1-621, looked up)
DnaJ homolog subfamily C …: MLLLPSAADGRGTAITHALTSASTLCQVEPVGRWFEAFVKRRNRNASASFQELEDKKELSEESEDEELQLEEFPMLKTLDPKDWKNQDHYAVLGLGHVRYKATQRQIKAAHKAMVLKHHPDKRKAAGEPIKEGDNDYFTCITKAYEMLSDPVKRRAFNSVDPTFDNSVPSKSEAKDNFFEVFTPVFERNSRWSNKKNVPKLGDMNSSFEDVDIFYSFWYNFDSWREFSYLDEEEKEKAECRDERRWIEKQNRATRAQRKKEEMNRIRTLVDNAYSCDPRIKKFKEEEKAKKEAEKKAKAEAKRKEQEAKEKQRQAELEAARLAKEKEEEEVRQQALLAKKEKDIQKKAIKKERQKLRNSCKTWNHFSDNEAERVKMMEEVEKLCDRLELASLQCLNETLTSCTKEVGKAALEKQIEEINEQIRKEKEEAEARMRQASKNTEKSTGGGGNGSKNWSEDDLQLLIKAVNLFPAGTNSRWEVIANYMNIHSSSGVKRTAKDVIGKAKSLQKLDPHQKDDINKKAFDKFKKEHGVVPQADNATPSERFEGPYTDFTPWTTEEQKLLEQALKTYPVNTPERWEKIAEAVPGRTKKDCMKRYKELVEMVKAKKAAQEQVLNASRAKK
B2: CLASP2 (protein, UniProt O75122 1-1294, looked up)
CLIP-associating protein 2: MAMGDDKSFDDEESVDGNRPSSAASAFKVPAPKTSGNPANSARKPGSAGGPKVGGASKEGGAGAVDEDDFIKAFTDVPSIQIYSSRELEETLNKIREILSDDKHDWDQRANALKKIRSLLVAGAAQYDCFFQHLRLLDGALKLSAKDLRSQVVREACITVAHLSTVLGNKFDHGAEAIVPTLFNLVPNSAKVMATSGCAAIRFIIRHTHVPRLIPLITSNCTSKSVPVRRRSFEFLDLLLQEWQTHSLERHAAVLVETIKKGIHDADAEARVEARKTYMGLRNHFPGEAETLYNSLEPSYQKSLQTYLKSSGSVASLPQSDRSSSSSQESLNRPFSSKWSTANPSTVAGRVSAGSSKASSLPGSLQRSRSDIDVNAAAGAKAHHAAGQSVRSGRLGAGALNAGSYASLEDTSDKLDGTASEDGRVRAKLSAPLAGMGNAKADSRGRSRTKMVSQSQPGSRSGSPGRVLTTTALSTVSSGVQRVLVNSASAQKRSKIPRSQGCSREASPSRLSVARSSRIPRPSVSQGCSREASRESSRDTSPVRSFQPLASRHHSRSTGALYAPEVYGASGPGYGISQSSRLSSSVSAMRVLNTGSDVEEAVADALKKPARRRYESYGMHSDDDANSDASSACSERSYSSRNGSIPTYMRQTEDVAEVLNRCASSNWSERKEGLLGLQNLLKNQRTLSRVELKRLCEIFTRMFADPHGKRVFSMFLETLVDFIQVHKDDLQDWLFVLLTQLLKKMGADLLGSVQAKVQKALDVTRESFPNDLQFNILMRFTVDQTQTPSLKVKVAILKYIETLAKQMDPGDFINSSETRLAVSRVITWTTEPKSSDVRKAAQSVLISLFELNTPEFTMLLGALPKTFQDGATKLLHNHLRNTGNGTQSSMGSPLTRPTPRSPANWSSPLTSPTNTSQNTLSPSAFDYDTENMNSEDIYSSLRGVTEAIQNFSFRSQEDMNEPLKRDSKKDDGDSMCGGPGMSDPRAGGDATDSSQTALDNKASLLHSMPTHSSPRSRDYNPYNYSDSISPFNKSALKEAMFDDDADQFPDDLSLDHSDLVAELLKELSNHNERVEERKIALYELMKLTQEESFSVWDEHFKTILLLLLETLGDKEPTIRALALKVLREILRHQPARFKNYAELTVMKTLEAHKDPHKEVVRSAEEAASVLATSISPEQCIKVLCPIIQTADYPINLAAIKMQTKVIERVSKETLNLLLPEIMPGLIQGYDNSESSVRKACVFCLVAVHAVIGDELKPHLSQLTGSKMKLLNLYIKRAQTGSGGADPTTDVSGQS
B3: DBR1 (protein, UniProt Q9UK59 1-544, looked up)
Lariat debranching enzyme: MRVAVAGCCHGELDKIYETLALAERRGPGPVDLLLCCGDFQAVRNEADLRCMAVPPKYRHMQTFYRYYSGEKKAPVLTLFIGGNHEASNHLQELPYGGWVAPNIYYLGLAGVVKYRGVRIGGISGIFKSHDYRKGHFECPPYNSSTIRSIYHVRNIEVYKLKQLKQPIDIFLSHDWPRSIYHYGNKKQLLKTKSFFRQEVENNTLGSPAASELLEHLKPTYWFSAHLHVKFAALMQHQAKDKGQTARATKFLALDKCLPHRDFLQILEIEHDPSAPDYLEYDIEWLTILRATDDLINVTGRLWNMPENNGLHARWDYSATEEGMKEVLEKLNHDLKVPCNFSVTAACYDPSKPQTQMQLIHRINPQTTEFCAQLGIIDINVRLQKSKEEHHVCGEYEEQDDVESNDSGEDQSEYNTDTSALSSINPDEIMLDEEEDEDSIVSAHSGMNTPSVEPSDQASEFSASFSDVRILPGSMIVSSDDTVDSTIDREGKPGGTVESGNGEDLTKVPLKRLSDEHEPEQRKKIKRRNQAIYAAVDDDDDDAA
B4: DUT (protein, UniProt P33316 70-252, looked up)
Deoxyuridine 5'-triphosphate …: ASTVGAAGWKGELPKAGGSPAPGPETPAISPSKRARPAEVGGMQLRFARLSEHATAPTRGSARAAGYDLYSAYDYTIPPMEKAVVKTDIQIALPSGCYGRVAPRSGLAAKHFIDVGAGVIDEDYRGNVGVVLFNFGKEKFEVKKGDRIAQLICERIFYPEIEEVQALDDTERGSGGFGSTGKN

These molecules were tested against T1, G9a and GLP (Homo sapiens, UniProt Q96KQ7+Q9H9B1) (assay: Triple SILAC pull-down after UNC0638 treatment of 293T cells, DMSO/UNC0638 ratio of protein captured by 3×MBT). Settings: SILAC ratio DMSO/UNC0638 of protein pulled down with 3xMBT; UNC0638 in heavy SILAC media.
T1 sequence (Q96KQ7 2-1210 limits assumed): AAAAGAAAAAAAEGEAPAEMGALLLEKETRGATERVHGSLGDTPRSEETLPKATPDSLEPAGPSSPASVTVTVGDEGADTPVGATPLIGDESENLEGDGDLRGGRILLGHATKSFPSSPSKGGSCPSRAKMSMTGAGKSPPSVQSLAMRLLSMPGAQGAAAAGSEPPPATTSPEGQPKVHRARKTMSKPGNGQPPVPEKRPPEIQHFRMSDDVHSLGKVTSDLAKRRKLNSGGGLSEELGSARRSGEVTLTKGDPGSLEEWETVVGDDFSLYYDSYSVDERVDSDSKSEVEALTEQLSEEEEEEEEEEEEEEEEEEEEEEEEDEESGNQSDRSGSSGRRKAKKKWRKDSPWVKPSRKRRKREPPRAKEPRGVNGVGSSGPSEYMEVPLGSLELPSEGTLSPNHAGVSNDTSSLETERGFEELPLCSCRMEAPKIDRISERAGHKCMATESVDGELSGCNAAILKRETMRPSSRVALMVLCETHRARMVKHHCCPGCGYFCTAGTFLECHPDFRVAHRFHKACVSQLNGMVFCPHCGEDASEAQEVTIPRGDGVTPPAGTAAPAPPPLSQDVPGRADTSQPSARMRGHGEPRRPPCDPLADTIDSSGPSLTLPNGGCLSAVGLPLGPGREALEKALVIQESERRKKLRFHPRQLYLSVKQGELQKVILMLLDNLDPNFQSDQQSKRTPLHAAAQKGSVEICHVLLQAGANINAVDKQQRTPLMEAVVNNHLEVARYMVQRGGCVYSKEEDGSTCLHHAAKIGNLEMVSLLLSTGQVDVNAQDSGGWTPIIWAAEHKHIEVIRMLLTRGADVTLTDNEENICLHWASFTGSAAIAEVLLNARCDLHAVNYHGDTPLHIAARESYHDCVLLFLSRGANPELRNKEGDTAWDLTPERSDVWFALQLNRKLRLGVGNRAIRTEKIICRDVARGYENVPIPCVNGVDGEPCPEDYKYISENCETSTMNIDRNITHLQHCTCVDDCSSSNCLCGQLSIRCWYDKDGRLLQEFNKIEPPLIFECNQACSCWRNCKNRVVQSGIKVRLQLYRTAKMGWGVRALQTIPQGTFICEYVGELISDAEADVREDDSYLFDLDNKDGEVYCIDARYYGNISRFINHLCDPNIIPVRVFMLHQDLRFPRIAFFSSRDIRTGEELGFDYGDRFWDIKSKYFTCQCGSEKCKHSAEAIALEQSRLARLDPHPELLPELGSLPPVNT
T1 sequence (Q9H9B1 2-1298 limits assumed): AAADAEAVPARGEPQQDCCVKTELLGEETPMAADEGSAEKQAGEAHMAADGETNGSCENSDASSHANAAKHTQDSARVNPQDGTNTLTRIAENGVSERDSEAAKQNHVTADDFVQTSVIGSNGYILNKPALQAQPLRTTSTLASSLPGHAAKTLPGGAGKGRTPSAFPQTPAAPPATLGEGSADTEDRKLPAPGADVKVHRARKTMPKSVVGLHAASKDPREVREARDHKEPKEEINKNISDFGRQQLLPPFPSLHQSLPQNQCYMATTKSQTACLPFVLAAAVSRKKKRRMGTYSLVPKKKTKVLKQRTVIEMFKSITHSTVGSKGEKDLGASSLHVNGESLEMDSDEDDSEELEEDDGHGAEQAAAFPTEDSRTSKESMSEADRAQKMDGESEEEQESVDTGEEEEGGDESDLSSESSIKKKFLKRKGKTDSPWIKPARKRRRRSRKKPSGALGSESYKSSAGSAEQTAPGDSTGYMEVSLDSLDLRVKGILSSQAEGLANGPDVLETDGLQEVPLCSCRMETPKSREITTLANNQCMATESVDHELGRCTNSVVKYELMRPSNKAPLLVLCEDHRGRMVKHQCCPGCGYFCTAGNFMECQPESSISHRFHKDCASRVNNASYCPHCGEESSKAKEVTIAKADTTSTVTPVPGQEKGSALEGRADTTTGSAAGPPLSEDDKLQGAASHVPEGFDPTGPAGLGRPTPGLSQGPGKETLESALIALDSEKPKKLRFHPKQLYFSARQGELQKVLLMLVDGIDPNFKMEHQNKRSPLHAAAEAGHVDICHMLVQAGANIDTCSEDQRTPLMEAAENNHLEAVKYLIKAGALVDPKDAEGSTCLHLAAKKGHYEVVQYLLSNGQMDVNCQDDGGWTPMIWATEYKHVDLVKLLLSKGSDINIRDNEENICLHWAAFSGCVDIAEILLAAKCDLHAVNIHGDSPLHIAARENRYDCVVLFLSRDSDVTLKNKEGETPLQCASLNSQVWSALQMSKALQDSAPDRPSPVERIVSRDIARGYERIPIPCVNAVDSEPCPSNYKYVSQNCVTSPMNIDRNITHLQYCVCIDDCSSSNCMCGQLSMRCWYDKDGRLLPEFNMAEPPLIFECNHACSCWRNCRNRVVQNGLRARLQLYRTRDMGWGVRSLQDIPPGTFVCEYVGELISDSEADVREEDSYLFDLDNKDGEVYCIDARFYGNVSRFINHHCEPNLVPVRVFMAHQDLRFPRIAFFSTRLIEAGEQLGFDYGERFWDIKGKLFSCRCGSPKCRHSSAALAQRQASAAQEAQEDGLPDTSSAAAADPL
Format: cell-based
Design: endogenous in cells; host or cells: HEK 293T
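Wherever Relative to UNC0638 Average is given: mass spectrometry (Q-Exactive) SILAC quantitation, DMSO/UNC0638 ratio computed after subtracting 3×MBTD355N mutant pull-down background, only proteins with at least twofold 3×MBT over mutant signal considered.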
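Wherever Relative to UNC0638 UNC Heavy is given: mass spectrometry (Q-Exactive) SILAC quantitation, DMSO/UNC0638 ratio computed after subtracting 3×MBTD355N mutant pull-down background, only proteins with at least twofold 3×MBT over mutant signal considered.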
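Wherever Relative to UNC0638 UNC Light is given: mass spectrometry (Q-Exactive) SILAC quantitation, DMSO/UNC0638 ratio computed after subtracting 3×MBTD355N mutant pull-down background, only proteins with at least twofold 3×MBT over mutant signal considered.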

Point of comparison: B4, “Relative to UNC0638 UNC Heavy” value 0.62 log base 2. Against it:
- B1 — lower, 0.28 log base 2
- B2 — lower, 0.45 log base 2
- B3 — lower, 0.54 log base 2

Same assay, conditions: SILAC ratio DMSO/UNC0638 of protein pulled down with 3xMBT; UNC0638 in light SILAC media

Point of comparison: B1, “Relative to UNC0638 UNC Light” value 0.33 log base 2. Against it:
- B2 — lower, 0.19 log base 2
- B3 — lower, 0.13 log base 2
- B4 — lower, 0.04 log base 2

Same assay, conditions: average of UNC Light and UNC Heavy experiments

Point of comparison: B1, “Relative to UNC0638 Average” value 0.30 log base 2. Against it:
- B2 — higher, 0.32 log base 2
- B3 — higher, 0.33 log base 2
- B4 — higher, 0.33 log base 2

What follows are molecules tested on 3×MBT domain of L3MBTL1 (assay: Triple SILAC pull-down, 3xMBT/3xMBTD355N ratio (cytoplasmic, nuclear and chromatin fractions of 293T cells)). Settings: SILAC ratio, pull-down 3xMBT vs 3xMBTD355N; experiment with UNC0638 in heavy SILAC media.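 Further: proteins quantified with MaxQuant, requiring at least two unique peptides and quantification in both label directions, normalized to the mean of proteins from a digested loading control.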
Format: binding, human

Point of comparison: B2, “3xMBT/D355N UNC Heavy” value 2.43 log base 2. Against it:
- B1 — lower, 2.18 log base 2
- B3 — higher, 3.11 log base 2
- B4 — lower, 1.63 log base 2

Same assay, conditions: SILAC ratio, pull-down 3xMBT vs 3xMBTD355N; experiment with UNC0638 in light SILAC media

Point of comparison: B3, “3xMBT/D355N UNC Light” value 2.56 log base 2. Against it:
- B1 — higher, 3.04 log base 2
- B2 — lower, 2.10 log base 2
- B4 — lower, 2.37 log base 2
